Reference: a protein production outcome set (Wang et al. 2014)

Assay: label from the status in PepcDB records

Sequence | protein production
MILKTLRNIFITIVVIAIIVIGGLFGLNAYSNQHPNNHSINDWNKLNPLAPTYEYYVKTQKPSKVEVVDKEKDFYIYHYNQTGYTKDGKSKKIEYTASKKLKQNHYLVVREKSHTIQSFEEVKKSKIPTKAKEKL | failed
MELLCIDYLGKPLRLEGTMAGWQQLFWDNILVAQRPAQEQYEGDIQHHFQLTQGEHVLECCLEIALTWQPFQLQYQTKLNGELVAQGMRSEKDVERQTPYEAPKVERRFSVIGLVSLAMKALKSAKMIKVVMASASLAAYSWLFSFQFALALIGCLVFHEYGHVRAMKYFGMKTKGIYLVPFLGGLALSDEKINTRWQDVVISIMGPCFGFLLSLLLVGVYWVTDSPFWAALAVFNAFLNLFNLLPVLPLDGGHILKSVSFSMNSKMGVILCVLAILGGIALSYSLGLTLFGFLLLMGALDIVFEWRQRHHSHLLPLNRYAQMVSTIWYFALVSGLIAIIIGFASTGDTLLSLPLLILGT | failed
MSDRGASAPSLPDDWPAHPDPILALNRMGSFDWDLDAGLFHMDAQAHEVFDLRPEEYDGRPESLALRVPTAESRRMDTIVARAMKDGSENYGTYFRLRRRDGTLRWTHTQGYIRRDETGRPRRIIGIVRDATQ | failed
MFELFQYDFMRNALLAATAISIFSPLLGVFLVLRRQSLMSDTLSHVSLAGVAFGVLLSWNPTITTLITVVIAAVFLEYLRTIYHNYMEIATAILMSAGLAIALLILNSSKGATSVSLEQYLFGSIITISLSQVIMLFVLAAVVLLGFILFLRPLYVMTFDEDTAFVDGLPVRWISIAFNIVTGVAIALMIPAAGALLVSAIMVLPASIAMRLGKSFKAVLFISAIVSFIGLNAGLIASYYMDAPASAAITLIFIVLFLVTSSLKRLIRA | failed
MKIKVALLDKDKEYLDRLTGVFNTKYADKLEVYSFTDEKNAIESVKEYRIDVLIAEEDFNIDKSEFKRNCGLAYFTGTPGIELIKDEIAICKYQRVDVIFKQILGVYSDMAANVATISGENDKSSVVIFTSPCGGVGTSTVAAACAIAHANMGKKVFYLNIEQCGTTDVFFQAEGNATMSDVIYSLKSRKANLLLKLESCIKQSQEGVSYFSSTKVALDILEISYADIDTLIGNIQGMDNYDEIIVDLPFSLEIEKLKLLSKAWRIIVVNDGSQLSNYKFMRAYESVVLLEQNDDINIIRNMNMIYNKFSNKNSEMLSNISIKTIGGAPRYEHATVRQIIEALTKMEFFEEILQ | not failed
MGSGESKANTAETPEVLDVKLTGPEKVNPGESAAYEAAVSYGDEAVTDADEVEFEVWKEGEKDASQMFKVKQEKGVYRLETTFKEDGVYTVQSHVTAKKQHSMPTLKVQVGDADAASNQSEEEHSHHHLEHHHHHH | not failed
MSSRTRARGSKRAAGVHTVSIPRQRGRRRAQPFVIVFPESPSLTREALGFIGRALWKGRRALAPTALALLAFAVTGLLHVMAWWSSLILAPLAAGPLVWLAVMQVRRPGRGAVVLWRAGLALLATFTAAWAALAAGFGPLAGPLDLVWLLMWIAAQTAWLFVRRSH | failed
MAESKRDYYEVLGVSKDADDAAIKKAYRALAKKYHPDMNPGDAEAEKKFKEASEAYAVLSDAEKRRQYDQFGHAAFEGGAGGAGGFGGFDFNGADFGDIFGDIFGDLFGGGGRRGGRANNGPMKGANIRKSIRITFEEAVFGCKKELEVILKDPCTTCGGTGAKPGTSPETCPKCGGKGQVVYTSQSFFGTVQNVQTCPNCGGSGKVIKEKCTSCSGTGYTSSKKKIEVTIPAGIDNGQSVRIREKGEPGTNGGPRGDLLVEVNVSRHPIFQRQDMHIFSTVPISFAQAALGGDVKIQTVDGAVIYNVKPGTKTDTKVRLKGKGVPSLRNSAVRGDHYVTLVIQTPEKLSAEAKEALRRFDELSGNSLHQNDSNPEKSEKKTKRKGFMDKVKEAFEGED | failed
MKVTFMNLEERKKLETKSIDELDLIGKKVCVDTCVVIDGRITELIERGKLKDATIIIPEAVVSELEYQANMGREIGYKGIEELRKLIEKASEHNIKVEYYGERPTREEIFLAKSGEIDAMIRKVAKETNSILLTSDWIQYNLAKAQGIEAYFLEAAEEEVELVLD | not failed
MTENAEKFLWGVATSAYQIEGATQEDGRGPSIWDAFAQRPGAIRDGSTGEPACDHYRRYEEDIALMQSLGVRAYRFSVAWPRILPEGRGRINPKGLAFYDRLVDRLLASGITPFLTLYHWDLPLALEERGGWRSRETAFAFAEYAEAVARALADRVPFFATLNEPWCSAFLGHWTGEHAPGLRNLEAALRAAHHLLLGHGLAVEALRAAGARRVGIVLNFAPAYGEDPEAVDVADRYHNRFFLDPILGKGYPESPFRDPPPVPILSRDLELVARPLDFLGVNYYAPVRVAPGTGTLPVRYLPPEGPATAMGWEVYPEGLYHLLKRLGREVPWPLYVTENGAAYPDLWTGEAVVEDPERVAYLEAHVEAALRAREEGVDLRGYFVWSLMDNFEWAFGYTRRFGLYYVDFPSQRRIPKRSALWYRERIARAQT | not failed
MLLHNGPMKLAEALIERADLQKRAAQLEERLVQNMQVQEGEVPAEDPRELLNELLTVSSALEVLLPRIHRANLSATLPSGQTLTDALTRRDLLDARLKALRRAATAAAERQTRYSNSELRMVAVIPPSELQKLADVMAKERRELEVQIQQANWQTDLPGSGALEHHHHHH | not failed
MAKVTISSVIDAPVEKVWARIRDFNGLPCWHPRMVESHIEDGKNASTIGCVRNFELITGARLREKLLDFSDENFLVSYSILETPQPLTNHKATLQLRRVTDGDRTYAEWTASFDAAPEEADKIAAGMGANVFQGGFNALKSHFSGQD | failed
MHCDDVMLPAALHRESCPAPEGVVTVADTTRNASGHARPRISIIIPAWNIAPWIGQTLRSILSQTVDDFECIVIDDGSTDGTAQVVASVADPRIRCIRQPNAGVSAARNRGIAEAQGAFITFLDGDDYWLPCFLETLLPPLLTRPEVDLVYCGMTMFMDDDGTVKPQPWGNVHATGNVWWDMLSDSVMLMGAWLARAEVVKGCRPFDPTLRVGEDRDFLLSMLEDIYHQRHHEAVGIDARLLRYRQRRGSGVRQVADALQCEWHMMDRHLRHEGIPPAVRRRAYSDLAFKMGVIAAFGARDIALALRWYGKAFALCPMNGNLYWLPLRKMFLSLRPRRRLHMKVLFLSARADFGGGPEHVLQLLRRLPPDVEAAVACPEDVPYWERFRNIVGDDNMFSMPHRAFTLEAVARLRRFCRKRGFDVLHAHGKGAGLYARVLSLLCGIPSVYTFHGVHLGGYGPLKRWLYGAYERAASWCTRRGIAVSRGERDAIEAHGLMPASKVSVIMNGVEMPEGTAPRPAGPPWLVVSFSRFDMQKNSLFLLDVARALQEQGRLDGFRFLLVGDGPDRARLLEQAAAQGLGDRVSCPGATPTPHEAYAGALCYFSSSRWEGMPLAVLEAMAHGLPVVATDVVGNRDAVADGVTGLLYPEGDAGAAARGLVRLADEAALWAAMAHEARAWVATRHDVQRMADRTFHELRKACGRA | failed
MAKSLTFSTFSPNNTLKKNVIPIVLLHGWGLNSGVWQPLLELFHRNDESIYQLITIDLPGFGINSAVDIKPYSLANICHHIEQVIDQPAIYLGWSLGGLIATEMSLKYPEKVLASITVASSPYFVEQPTDNWPGIKENVLESFHKQLAQDTAKTISGFLKIQAMGSPHIRQDLKLITQLVMAHTLPSQQTLADSLALLSNSDLRLHLSKIKQPLLRLYGHNDSLVPKEVMEKISYLAPNSDQHLFADASHAPFISHLDDFYQVLVVWLDSHFNLEHHHHHH | failed
MSSDESSDGLEELQSLKALYGQQEQEKPAKIKRERYIPKASQAKELNYVEVPMEKVLFGDRQRLLTNLAKSVGQKLPNDDEDEQEENPGQAKPGDKRKAAWSDSDDEDLQVGDVKKATKHTGPLNHLRKDKSYKEYLTARFQRTLNQPKWAEKKVKNEDDEDVSSDEELLRTVGFIDRKARNSDLPQKTLNFKRVKDLNRATYAEGNATSIQFHPTSTAALVAGMNGLATIYAVDGQKNERLHNMRFKKFPLACSRIAPCGTRAFFGSVKPFYYSYDLLEAKESKLKLPGAMEFMHRFEVSPCGKFIVTAGKFGAIHLLTAKTNELLHSFKQEGKVKGFTWSSDSKRILVCGSTSNVSVLNLRQNLIEHIFMDDGCIHGESIQLSPNQRLLATGSQEGVVNIYDYESIFASKAPQPEKRFMNLRTAITDLQFNHSSELLAMCSSEAPNAFKLAHFPSATVYSNFPAQNEKVGFVTSMAFSPHSSFLAFATKGKQVPLFRLKYFKGY | failed
KASTKLHVGNISPTCTNQELRAKFEEYGPVIECDIVKDYAFVHMERAEDAVEAIRGLDNTEFQGKRMHVQLSTSRLRTA | not failed
PKKPGTGKHIVYFPGANTYYQACFRDISTACKETGATVHAFNFPGTGLSSGKVREANDLINAGISVVSSLIKQGVHPDDIILQGDCYGASIALEVKKQLEDQ | failed
MYVTRRLSEYQKKPSELKLLPPEGPNSGIMVIQDEESQATCCFGSCYEGRLKGLPFPQNVKLNAAYTSGGGEHQTTHLTPVVFIPVLDQPLSSNLYYVLQRRGKHTGKASASATEEERVSSCFCFSYIPDAKPQEADPYDIYQQFEIHQRRSSSRYYSATSVASDGVPPNYLKRKDWWVSYSTSHDFGLRDDAKGINTKLRLDSELTSLGKSIEIGKWYVPFIFVMEGDVKDQMNKSTFYSVTLQQRWEEVFFCENIGNEHFEVVVDVDVETESVKLEGQETNLREDSGDGVVWFSVLRDEKDDKKIGLGSVVVERMKWEEERFGWLNEAGERSNIKRSERFEGGSSHWKSYRCYVLIESFELTRMDGSLVLTYEFRHVDKLKSKWD | failed
MIHLVSLLALAFAVSLDSFGVGLTYGLRKMKIPFKSLLFIAGCSAVSILIAMGFGMTIQQYLSPAIAESLGGIILILIGCWALYQAFRPAKNGHKTKDDHVILNFEIKMLGVVIRILRKPMVADFDNSGAITGREAVILGIALSLDAFGAGIGAALIGFHPLYMAVSVAVMSALFVSLGMKSGYRFADSYWIKRFSFIPGLLLVLIGVFNLMM | failed
MSLKFDFSNLFEPNISGGLTDEDVKSVEEKVTSAVRNFVENTPDFAKLDRSWIDSVKSLEDWIINFDTVVVLGIGGSGLGNLALHYSLRPLNWNEMTREERNGYARVFVVDNVDPDLMSSVLDRIDPKTTLFNVISKSGSTAEVMATYSIARGILEAYGLDPREHMLITTDPEKGFLRKLVKEEGFRSLEVPPGVGGRFSVLTPVGLLSAMAEGIDIDELHEGAKDAFEKSMKENILENPAAMIALTHYLYLNKGKSISVMMAYSNRMIYLVDWYRQLWAESLGKRYNLKGEEVFTGQTPVKALGATDQHSQIQLYNEGPNDKVITFLRVENFDREIVIPETGRAELSYLARKKLSELLLAEQTGTEEALRENNRPNMRVTFDGLTPYNVGQFFAYYEAATAFMGYLLEINPFDQPGVELGKKITFALMGREGYTYEIKERSKKVIIE | not failed
MPIGSAMSRIATSSPGHDALSDRERAVAEKFAAGLTYREIGEALFIAPSTVRTHLASIYDKLGVRNKVALASHINGAIGAGMDGPPRLPGASPVLAIFPIECQTSEERWRRFADGLSSDITIDLARYADLPVIAFHTMKSLGSKPADFAADGKALGATYVVSGQLRADERRVRLSIELADADNGVSLWSERYDRQVEDIFALQDSLTETVINVIAGSYGALATVGRKAIRRKPPASLRAYDCYLLGVEQQDTFSRAGIAEAIRLFSRALELDPTLVRAWTALAYAYSIEGANGFGDDAQVSIENWRTAVENAILLDPMDSVACNCLGDLRGCLGDLEGAERAYRRAFEYGSNHADTLAMLAGSKALVAGDPAEAMPLIERAMHLNPLAPPWYFGMLGRILFTLGRHREAIAALCRSTLNSPNVLLFLALAHTSVGEAAEAARIEARLKTEFADFSVERFITCYPVTNPDAVHAIRHAAQQLARRD | failed
